Target: 53BP1 (p53-binding protein 1) (human, UniProt Q12888 1-1972, limits assumed)
Test: cell-based or functional assay

53BP1 (p53-binding protein 1), sequence (Q12888 whole entry): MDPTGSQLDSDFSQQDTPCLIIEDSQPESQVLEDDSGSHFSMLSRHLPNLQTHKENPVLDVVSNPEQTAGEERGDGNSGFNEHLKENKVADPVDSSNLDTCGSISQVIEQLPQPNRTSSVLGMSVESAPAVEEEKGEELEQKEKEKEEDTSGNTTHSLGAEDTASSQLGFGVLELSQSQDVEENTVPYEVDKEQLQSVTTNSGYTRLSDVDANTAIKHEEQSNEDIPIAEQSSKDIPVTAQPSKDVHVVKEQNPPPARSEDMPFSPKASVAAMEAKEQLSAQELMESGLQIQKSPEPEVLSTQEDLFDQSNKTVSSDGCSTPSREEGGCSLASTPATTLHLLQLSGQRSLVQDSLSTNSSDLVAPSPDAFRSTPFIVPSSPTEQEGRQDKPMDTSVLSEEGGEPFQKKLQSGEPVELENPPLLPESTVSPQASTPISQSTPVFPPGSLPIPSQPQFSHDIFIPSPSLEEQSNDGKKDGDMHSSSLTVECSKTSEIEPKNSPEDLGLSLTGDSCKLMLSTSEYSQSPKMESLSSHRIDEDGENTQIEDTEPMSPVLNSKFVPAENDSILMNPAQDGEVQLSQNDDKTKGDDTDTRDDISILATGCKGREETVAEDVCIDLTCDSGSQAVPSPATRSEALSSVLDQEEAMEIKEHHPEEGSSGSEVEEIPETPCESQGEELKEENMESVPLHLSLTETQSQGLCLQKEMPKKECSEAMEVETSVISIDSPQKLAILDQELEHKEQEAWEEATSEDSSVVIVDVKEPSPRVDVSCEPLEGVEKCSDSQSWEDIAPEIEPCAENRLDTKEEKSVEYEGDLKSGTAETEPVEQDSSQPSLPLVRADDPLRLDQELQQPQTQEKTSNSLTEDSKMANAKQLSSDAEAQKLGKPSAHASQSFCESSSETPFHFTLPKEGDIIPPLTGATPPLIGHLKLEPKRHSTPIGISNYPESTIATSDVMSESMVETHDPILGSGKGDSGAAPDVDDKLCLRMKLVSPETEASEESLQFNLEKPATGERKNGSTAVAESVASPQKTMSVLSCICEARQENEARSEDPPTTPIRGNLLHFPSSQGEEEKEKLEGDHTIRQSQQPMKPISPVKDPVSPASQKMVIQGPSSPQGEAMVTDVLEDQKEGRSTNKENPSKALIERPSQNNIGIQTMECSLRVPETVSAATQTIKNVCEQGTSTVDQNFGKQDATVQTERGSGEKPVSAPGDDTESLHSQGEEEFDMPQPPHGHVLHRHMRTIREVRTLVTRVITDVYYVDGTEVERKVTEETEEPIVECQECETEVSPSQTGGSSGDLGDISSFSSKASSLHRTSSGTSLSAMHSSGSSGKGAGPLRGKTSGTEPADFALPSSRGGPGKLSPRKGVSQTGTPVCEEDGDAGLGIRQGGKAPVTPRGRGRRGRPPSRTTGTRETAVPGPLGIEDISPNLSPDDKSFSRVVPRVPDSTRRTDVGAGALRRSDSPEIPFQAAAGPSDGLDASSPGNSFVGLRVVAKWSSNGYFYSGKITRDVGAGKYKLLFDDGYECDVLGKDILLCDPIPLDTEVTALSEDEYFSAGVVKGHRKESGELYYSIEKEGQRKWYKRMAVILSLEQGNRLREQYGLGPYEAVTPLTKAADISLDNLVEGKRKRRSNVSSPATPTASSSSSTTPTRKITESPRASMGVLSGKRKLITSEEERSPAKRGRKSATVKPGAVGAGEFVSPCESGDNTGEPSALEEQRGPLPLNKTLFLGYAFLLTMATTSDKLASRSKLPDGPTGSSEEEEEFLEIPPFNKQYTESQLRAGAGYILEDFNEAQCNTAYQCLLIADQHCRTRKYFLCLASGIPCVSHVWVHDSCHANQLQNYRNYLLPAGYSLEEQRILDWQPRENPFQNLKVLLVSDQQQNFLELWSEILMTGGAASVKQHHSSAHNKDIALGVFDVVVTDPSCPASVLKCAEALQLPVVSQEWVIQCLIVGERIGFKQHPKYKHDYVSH

INDELs due to NHEJ repair (+/-1 nt), T107 RNP+AAV.310, NGS: 1.3 fold reduction
B1: i53 polypeptide (polypeptide inhibitor of 53BP1) (designed binder)
chain: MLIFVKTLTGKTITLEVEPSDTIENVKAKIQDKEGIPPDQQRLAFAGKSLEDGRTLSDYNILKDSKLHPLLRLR

Source: US20220228142A1 (VERTEX PHARMACEUTICALS, published 2022)
